Data from a protein production outcome set (Wang et al. 2014).

Assay: label from the status in PepcDB records

For “MGSMDQSIAVKSPLTYAEALANTIMNTYTVEELPPANRWHYHQGVFLCGVLRLWEATGEKRYFEYAKAYADLLIDDNGNLLFRRDELDAIQAGLILFPLYEQTKDERYVKAAKRLRSLYGTLNRTSEGGFWHKDGYPYQMWLDGLYMGGPFALKYANLKQETELFDQVVLQESLMRKHTKDAKTGLFYHAWDEAKKMPWANEETGCSPEFWARSIGWYVMSLADMIEELPKKHPNRHVWKNTLQDMIKSICRYQDKETGLWYQIVDKGDRSDNWLESSGSCLYMYAIAKGINKGYLDRAYETTLLKAYQGLIQHKTETSEDGAFLVKDICVGTSAGFYDYYVSRERSTNDLHGAGAFILAMTELEPLFRSAGK”, the protein production was “not failed”.
In the case of “MTRLRGTLSVCIDAFPAWTRPLALAFVVYALSFGMRMLEYPAWQNPEYMLDGEYLLATHDAYHWIAGAEGFEFGAGHPMSELVRLAAAFTGTTPAAVGFWLPPVMASLVAVGVFGWAAALGGVEAGVCAGVLASLAPGFLARTLLGYCDTDLVTLLFPLLMGLGPAFWMARFMFTPLQVARRLLARRTGTSDVVPDAVAVMMTSRGEADDDWHGGALSPRWLALLAGSGLVGSWGAEWHSLFPYLIRYDVVLLFGCICVFGRPGMRRALLVGGLAYALPMLVGAWGLLFALALGWGLHRADARFMAFVRGRALPVAGWCAVAVLLFDPDVFRMFLNSIAGYVKRSGDPSPGAGGDDPLVYPSVAQSIIEVQDLSLSEVLSYFHPWLWVALAGLGGFVPLLLARPAAFFLLPLGVLSFLSVKLGGRMVMFGAPVLALGFALPMVWGVQRVLRHDLRTGWVRLALSAVLLVIVATPFVDLLPAMTQGPIINKRHAEALRHIRTATPEDSMVWIWWDWGYSAHHFAHRRTIADGASHGGPSLYVPAAVFSTANPRFAWQLIRYTAERGGIPGSVFEGMGGAQAQELVHRLGIEKMTFADAPRQYLVVSYDMLRLGFWITNFGTWDFLSREGKGYAISSIPQQLSYSLDTGEVQVQGNTTGVLASTIDVFDEGQLERRDYIVRQGGSGNAIADYAARQRNIESRRNIHFLFNKVTGEKLVLDDRLYNTVMVQLLLCSPDDTRFAPYFKLIYDNVYARVYEVR”, the protein production is reported as “failed”.
In the case of “MLLTIFSILAILCLVLYFYCMVILHLKNKGVYHPMTHAVSDYGIGQNKSYFQLAGLANTFRNLFLILSLIFWKYSFSFKKEAVLLLILAIIGYAGVALFPTDIEGSKRTVKGIIHLLFAILQFTALAIFIFNVTEVLKPLNATLFLIASYIKIVVEVGLYGLVIALFLPFVKKYFGLFERLFLYSSNLYILLLCVMMIRY”, the protein production is reported as “failed”.
With “ISDRKMAEIALRESEARFRNLFESNIVGMFFASNQGEIFDANDRFLQMIGFTKEELDLGLVHWDRLTPPEYDQKDQEIIARLRNHETPEPWQKEYYRKDGSRIPVLVGVASIDVELEYTVCIVVDMT” the protein production was “failed”.
With “MIGLSKSRGALSMENQKMPEYETIRAAVAGEKWAVEKVVECYKDEIDRLSTVAVRQPDGSTKQEINEDMRQSITKKLIEALPQFPLEEMEKGNVRLEHHHHHH” the protein production was “not failed”.
In the case of “MRNKDLEPHSFELWLNAAKTNLDKYEMALIITATLGLRRGEVMGLRNESIKISHDQINDADVAQISIDMQRNTNELNGGPLKTKSSYRTIWAFGKTVDHLKYAMITADNLRQRNNIQAEKHWLWLNNDGNPLHPTHLNRLMRRVSNRSGVEVYPHLLRHYFATQAIAANKPQIDVMHYLGHKNLQMTADYTRSTKAASLNVFNSIDKFLLEHHHHHH”, the protein production is reported as “failed”.
In the case of “MQVLVVGANGQVGRLLMQQLLAAGDTPVAGLKPTEDGEEWADQGLMVCKMDLLAKPEQLASAIMGMDAVIFAAGSGGQTKADMTLLIDLDGAVKTMQAAEIAGVSRFLMISMLFAEDRNRWADPLKPLYVAKFYADNWLVRQTHLDYTIVQPGALSFHAGTGLIKSDPLAVGSVPRADLAAFLVAALHAPQTIGKTIPLLSGDQSIAQVIDQL”, the protein production is reported as “failed”.
For “MSTVKNGTLEQDKLNWFKYLLFGIQHVLVMIAVPITSVFLVAKALSLSDQLTVNLMSATFLVCGLGTLLQSIGVYKFGSRLPFVMIPGGAPIVMFLGIAQEKDLATASGAVILTSLFYFIILPVFKRFLRFFPNIVIGTLLILVSINLIKIYGGLVIGKPDTADFASTLNIGLAFATIAASLFFARVLKGTLSQLSILLGLIFGTILSAFLGQMHFETITQPTIFSLPTIMPFGVPKFDLVATIPLLIFSLISMVEATGQTIAISDLVGKKETAFERVPPTIRGDALISLLGGWLGTSMIITSGENIGIVRATQVRSRYVTIIAGIILLIISVFTPLAHLANAIPVAVVSGTAIIVFSIIGTIGIDILRRVDLHEKGNMYVLAGALTMGLLPILVNGVYTNFPHALQPILNNGLAMGALTAILLNIVFSTHSQADAHQESK”, the protein production was “failed”.
